Assay results reported in US20260035478A1 (TENEOBIO, published 2026).
Substitutions are numbered along the chain they refer to.

B1: anti-MSLN single domain antibody clone 394955 (VHH)
VHH: EVQLLESGGGLVQPGGSLRLSCAASGFTFSSYAMSWVRQAPGKGLEWVSSISSSGDSTYYADSVKGRFTISRDNSKNTLYLQMNSLRAEDTAVYYCAKPPSYYDFLSDPDYWGQGTLVTVSS
notes: Human VH single domain; tested as antibody-containing supernatant
B2: anti-MSLN single domain antibody clone 394908 (VHH)
VHH: B1 VHH with V12I, T28S, S50N, S53G
notes: Human VH single domain
B3: anti-MSLN single domain antibody clone 394991 (VHH)
VHH: B1 VHH with S35N, D56G, K98R
notes: as for B1
B4: anti-MSLN single domain antibody clone 394985 (VHH)
VHH: B1 VHH with S50A, S52T, S53G, Y80F, N84S, A88G
notes: as for B1
B5: anti-MSLN single domain antibody clone 394971 (VHH)
VHH: B1 VHH with V12I, T28S, S50Y, S53G
notes: as for B1
B6: anti-MSLN single domain antibody clone 394901 (VHH)
VHH: B1 VHH with V12I, T28S
notes: as for B1
B7: anti-MSLN single domain antibody clone 394947 (VHH)
VHH: B1 VHH with V12I, T28S, N84K
notes: as for B1
B8: anti-MSLN single domain antibody clone 394979 (VHH)
VHH: EVQLLESGGGVVQPGRSLRLSCAASGFTFSSYDMHWVRQAPGKGLEWVAVISYDGSKKYSADSVKGRFTISRDNSKNTLYLQMNSLRAEDTAVYYCAKPPSYYDFLSDPDYWGQGTLVTVSS
notes: as for B1
B9: anti-MSLN single domain antibody clone 394972 (VHH)
VHH: B1 VHH with S50A
notes: as for B1
B10: anti-MSLN single domain antibody clone 394921 (VHH)
VHH: B1 VHH with S50N, S53G
notes: as for B1
B11: anti-MSLN single domain antibody clone 394966 (VHH)
VHH: B1 VHH with V12G, A33P, S50A, S53G
notes: as for B1
B12: anti-MSLN single domain antibody clone 394940 (VHH)
VHH: B1 VHH with T28S, K98R
notes: Human VH single domain ('heavy chain antibody variable domain')
B13: anti-MSLN single domain antibody clone 394982 (VHH)
VHH: B1 VHH with S30T
notes: as for B1
B14: anti-MSLN single domain antibody clone 394907 (VHH)
VHH: B1 VHH with V12I
notes: as for B1
B15: anti-MSLN single domain antibody clone 394912 (VHH)
VHH: B1 VHH with V12I, T28S, S57G
notes: as for B1
B16: anti-MSLN single domain antibody clone 394925 (VHH)
VHH: B1 VHH with V12I, T28S, S50A
notes: as for B1
B17: anti-MSLN single domain antibody clone 394905 (VHH)
VHH: B1 VHH with V12G, A33P
notes: as for B1
B18: anti-MSLN single domain antibody clone 392774 (VHH)
VHH: B1 VHH with S35T, S50A, S52T, S53G, Y80F, N84S, A88G
notes: Human VH single domain
B19: anti-MSLN single domain antibody clone 394910 (VHH)
VHH: B1 VHH with T28S
notes: as for B1
B20: anti-MSLN single domain antibody clone 394930 (VHH)
VHH: B1 VHH with V12I, T28S, K98R
notes: as for B1

Key:
[1] = molecular target: T1, human mesothelin (MSLN) on cells (human, UniProt Q13421 296-598); experiment: flow cytometry, supernatant diluted 1:5, CHO cells expressing human MSLN
T1 construct: whole, on cells; One molecule is used for human MSLN on transfected CHO cells and on HeLa cells; the cell line is named under assay; also called huMSLN
Procedure: Pelleted CHO cells were resuspended in flow buffer (1× phosphate buffered saline (PBS), 1% bovine serum albumin (BSA), and 0.1% NaN₃) at 1.25×10⁶ cells/mL. Antibody containing supernatants were diluted 1:5 in flow buffer, and 40 μL cells plus 10 μL diluted antibody supernatant were incubated for 30 minutes at 4° C. Cells were washed with flow buffer and resuspended in 50 μL phycoerythrin (PE)-conjugated secondary antibody (Southern Biotech #2042-09) diluted in flow buffer to 1.25 μg/mL and incubated for 20 minutes at 4° C. After two wash steps, cells were resuspended in flow buffer and analyzed using a Guava easyCyte 8HT system. Table E1 summarizes the target binding activity of the anti-MSLN single domain antibodies as fold over background mean fluorescence intensity (MFI) signal.

[2] = molecular target: T2, recombinant human MSLN (R&D Systems, #3265-MS) (human, UniProt Q13421 296-580, limits assumed); experiment: BLI (Octet HTX), antibody on AHC sensors, antigen in solution, 1:1 model
T2 construct: Bought reagent; It was loaded on Ni-NTA sensors for the binning, so it apparently carries a His tag; also called antigen
Procedure: Table E3 summarizes affinity and epitope bin information for example anti-MSLN single domain antibodies of the present disclosure. The affinity of each single domain antibody to recombinant human MSLN (R&D Systems, #3265-MS) was measured by Bio-layer interferometry (BLI) using an Octet HTX. AHC (Anti-hIgG Fc Capture) sensors were used to immobilize test antibody at 5 μg/mL. After baseline readings, sensors were dipped into antigen solutions (starting at 500 nM followed by a 7-point, 2-fold dilution series). Association and dissociation were measured for 180 and 240 seconds respectively. Data were analyzed with Octet Data Analysis v11.0 HT (ForteBio) using a standard 1:1 binding model. Epitope bins for the single domain antibodies were determined by an in-tandem competition BLI binding experiment using an Octet HTX. The antigen (5 μg/mL) was loaded on the sensor Ni-NTA sensor followed by a baseline in kinetic buffer. The antigen-coated sensor was then dipped into a saturating concentration Antibody 1. A second baseline was now set for 300 seconds. Then the antigen-antibody 1 complex was dipped into Antibody 2 solution for 180 seconds and then allowed to dissociate.

[3] = molecular target: T1, human mesothelin (MSLN) on cells; experiment: flow cytometry dose curve, CHO cells expressing human MSLN
Procedure: (§1) Cell-binding dose curves for example anti-MSLN single domain antibodies described herein were generated using CHO cells expressing human MSLN (FIG. 1A), Hela cells (FIG. 1B), and CHO-OFFtgt cells (FIG. 1C). The single domain antibodies were tested at a starting concentration of 150 nM, followed by 3-fold serial dilutions for an 8-point dose curve. All washes and dilutions of cells, antibodies, and reagents were performed using flow buffer (1× phosphate buffered saline (PBS), 1% bovine serum albumin (BSA), and 0.1% NaN₃). Cells were pelleted and resuspended at 1×10⁶ cells/mL in flow buffer. Then, 50 μL cells were combined with 50 μL of test antibody and incubated 30 minutes at 4° C., followed by two wash steps with flow buffer. Cells were then resuspended in 50 μL PE-conjugated secondary diluted to 1.25 μg/mL (Southern Biotech #2042-09) and incubated for 20 minutes at 4° C. After two wash steps, cells were resuspended in flow buffer and analyzed using a BD Celesta system. PE mean fluorescence intensity was plotted as a fold over background (cells incubated with secondary detection antibody only).
To determine cell binding EC50 values for example anti-MSLN single domain antibodies of the present disclosure, cell binding dose curves were generated using Hela cells and CHO cells expressing human MSLN. The single domain antibodies were tested at a starting dose of 150 nM, followed by 3-fold serial dilutions for an 8-point dose curve as described in Example 2. The transformed data were plotted as an xy-graph using the non-linear regression curve fit (available in GraphPad Prism 8.4.3) to obtain the EC50 values (nM), which are summarized in Table E2.

[4] = molecular target: T1, human mesothelin (MSLN) on cells; experiment: flow cytometry dose curve, HeLa cells
Procedure: as §1
To determine cell binding EC50 values for example anti-MSLN single domain antibodies of the present disclosure, cell binding dose curves were generated using Hela cells and CHO cells expressing human MSLN. […]

T2 sequence (Q13421 other isoform, or with tags, fused parts or gaps limits assumed): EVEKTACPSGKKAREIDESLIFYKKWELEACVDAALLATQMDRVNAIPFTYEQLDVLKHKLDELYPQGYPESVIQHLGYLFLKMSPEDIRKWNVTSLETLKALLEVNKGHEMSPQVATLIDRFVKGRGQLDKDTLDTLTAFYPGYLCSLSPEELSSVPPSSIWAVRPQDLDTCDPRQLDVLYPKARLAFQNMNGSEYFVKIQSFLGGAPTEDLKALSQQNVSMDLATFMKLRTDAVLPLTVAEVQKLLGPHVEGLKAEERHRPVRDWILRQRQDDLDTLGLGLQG
T1 sequence (Q13421 other isoform, or with tags, fused parts or gaps limits assumed): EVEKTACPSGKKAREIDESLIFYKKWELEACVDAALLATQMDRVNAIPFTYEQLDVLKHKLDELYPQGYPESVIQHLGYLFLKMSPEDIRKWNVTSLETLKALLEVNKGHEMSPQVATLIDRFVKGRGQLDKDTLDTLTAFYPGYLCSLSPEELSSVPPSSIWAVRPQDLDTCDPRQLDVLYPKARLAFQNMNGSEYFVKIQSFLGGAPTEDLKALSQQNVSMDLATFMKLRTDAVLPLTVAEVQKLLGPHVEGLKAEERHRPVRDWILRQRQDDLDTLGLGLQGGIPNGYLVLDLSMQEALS

Binder | fold over background mean fluorescence intensity (MFI) [1] [fold over background] | Kd [2] [nM] | EC50 [3] [nM] | EC50 [4] [nM]
B1 | 294 |  |  | 
B2 | 508 | 64.6 | 71.1 | 
B3 | 281 |  |  | 
B4 | 378 |  |  | 
B5 | 373 |  |  | 
B6 | 400 |  |  | 
B7 | 285 |  |  | 
B8 | 160 |  |  | 
B9 | 477 |  |  | 
B10 | 381 |  |  | 
B11 | 356 |  |  | 
B12 | 662 | 21 | 6.5 | 2.6
B13 | 405 |  |  | 
B14 | 429 |  |  | 
B15 | 404 |  |  | 
B16 | 277 |  |  | 
B17 | 227 |  |  | 
B18 | 246 | 185 | 7.2 | 15.6
B19 | 313 |  |  | 
B20 | 540 |  |  | 
